In the supplement of paper PMC11316812:
± gives the standard deviation of the averaged measurements.

Legend:
MCF7 = assay: percentage of EdU-negative (G0-arrested) nuclei per well, 72 h; higher = more G0 arrest; conditions: reference: sequence is the full UniProt precursor, the tested protein was the secreted form or ectodomain
hTERT-HMEC = assay: as above; conditions: reference: sequence is the full UniProt precursor, the tested protein was the secreted form or ectodomain
[1] = protein concentration 0.012845 µM
[2] = protein concentration 0.12845 µM
[3] = protein concentration 0.0122857 µM
[4] = protein concentration 0.122857 µM
[5] = protein concentration 0.03125 µM
[6] = protein concentration 0.3125 µM
[7] = protein concentration 0.0357143 µM
[8] = protein concentration 0.357143 µM
[9] = protein concentration 0.0225 µM
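Further: secreted proteins added to cultured cells, EdU pulse at the end, nuclei found by Hoechst imaging, EdU status from nuclear versus surrounding ring intensity ratio, PBS as neutral control.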

**Q.** “MKRSVAVWLLVGLSLGVPQFGKGDICDPNPCENGGICLPGLADGSFSCECPDGFTDPNCSSVVEVASDEEEPTSAGPCTPNPCHNGGTCEISEAYRGDTFIGYVCKCPRGFNGIHCQHNINECEVEPCKNGGICTDLVANYSCECPGEFMGRNCQYKCSGPLGIEGGIISNQQITASSTHRALFGLQKWYPYYARLNKKGLINAWTAAENDRWPWIQINLQRKMRVTGVITQGAKRIGSPEYIKSYKIAYSNDGKTWAMYKVKGTNEDMVFRGNIDNNTPYANSFTPPIKAQYVRLYPQVCRRHCTLRMELLGCELSGCSEPLGMKSGHIQDYQITASSIFRTLNMDMFTWEPRKARLDKQGKVNAWTSGHNDQSQWLQVDLLVPTKVTGIITQGAKDFGHVQFVGSYKLAYSNDGEHWTVYQDEKQRKDKVFQGNFDNDTHRKNVIDPPIYARHIRILPWSWYGRITLRSELLGCTEEE” was tested. Which “percentage of EdU-negative” value (MCF7; [1]) did it give?
**A.** 25.7 ± 1.6%

**Q.** And the “percentage of EdU-negative” value (MCF7; [2])?
**A.** 30.6 ± 1.9%

**Q.** What about the “percentage of EdU-negative” value (hTERT-HMEC; [1]) of the same sequence?
**A.** 4.79 ± 0.32%

**Q.** And the “percentage of EdU-negative” value (hTERT-HMEC; [2])?
**A.** 47.8 ± 1.9%

**Q.** Which “percentage of EdU-negative” value (MCF7; [3]) does the source give for “MPRGFTWLRYLGIFLGVALGNEPLEMWPLTQNEECTVTGFLRDKLQYRSRLQYMKHYFPINYKISVPYEGVFRIANVTRLQRAQVSERELRYLWVLVSLSATESVQDVLLEGHPSWKYLQEVETLLLNVQQGLTDVEVSPKVESVLSLLNAPGPNLKLVRPKALLDNCFRVMELLYCSCCKQSSVLNWQDCEVPSPQSCSPEPSLQYAATQLYPPPPWSPSSPPHSTGSVRPVRAQGEGLLP [Q6ZMJ4]” here?
**A.** 25.6 ± 1.6%

**Q.** What about the “percentage of EdU-negative” value (MCF7; [4]) of the same sequence?
**A.** 27.7 ± 1.3%

**Q.** And the “percentage of EdU-negative” value (hTERT-HMEC; [3])?
**A.** 4.75 ± 0.29%

**Q.** What about the “percentage of EdU-negative” value (hTERT-HMEC; [4]) of the same sequence?
**A.** 18.4 ± 1.3%

**Q.** For “MRVLLAALGLLFLGALRAFPQDRPFEDTCHGNPSHYYDKAVRRCCYRCPMGLFPTQQCPQRPTDCRKQCEPDYYLDEADRCTACVTCSRDDLVEKTPCAWNSSRVCECRPGMFCSTSAVNSCARCFFHSVCPAGMIVKFPGTAQKNTVCEPASPGVSPACASPENCKEPSSGTIPQAKPTPVSPATSSASTMPVRGGTRLAQEAASKLTRAPDSPSSVGRPSSDPGLSPTQPCPEGSGDCRKQCEPDYYLDEAGRCTACVSCSRDDLVEKTPCAWNSSRTCECRPGMICATSATNSCARCVPYPICAAETVTKPQDMAEKDTTFEAPPLGTQPDCNPTPENGEAPASTSPTQSLLVDSQASKTLPIPTSAPVALSSTGKPVLDAGPVLFWVILVLVVVVGSSAFLLCHRRACRKRIRQKLHLCYPVQTSQPKLELVDSRPRRSSTQLRSGASVTEPVAEERGLMSQPLMETCHSVGAAYLESLPLQDASPAGGPSSPRDLPEPRVSTEHTNNKIEKIYIMKADTVIVGTVKAELPEGRGLAGPAEPELEEELEADHTPHYPEQETEPPLGSCSDVMLSVEEEGKEDPLPTAASGK”, which “percentage of EdU-negative” value (MCF7; [5]) is on record?
**A.** 24 ± 2.9%

**Q.** What about the “percentage of EdU-negative” value (MCF7; [6]) of the same sequence?
**A.** 24 ± 0.5%

**Q.** And the “percentage of EdU-negative” value (hTERT-HMEC; [5])?
**A.** 5.63 ± 0.33%

**Q.** And the “percentage of EdU-negative” value (hTERT-HMEC; [6])?
**A.** 5.66 ± 0.2%

**Q.** For “MGLSTVPDLLLPLVLLELLVGIYPSGVIGLVPHLGDREKRDSVCPQGKYIHPQNNSICCTKCHKGTYLYNDCPGPGQDTDCRECESGSFTASENHLRHCLSCSKCRKEMGQVEISSCTVDRDTVCGCRKNQYRHYWSENLFQCFNCSLCLNGTVHLSCQEKQNTVCTCHAGFFLRENECVSCSNCKKSLECTKLCLPQIENVKGTEDSGTTVLLPLVIFFGLCLLSLLFIGLMYRYQRWKSKLYSIVCGKSTPEKEGELEGTTTKPLAPNPSFSPTPGFTPTLGFSPVPSSTFTSSSTYTPGDCPNFAAPRREVAPPYQGADPILATALASDPIPNPLQKWEDSAHKPQSLDTDDPATLYAVVENVPPLRWKEFVRRLGLSDHEIDRLELQNGRCLREAQYSMLATWRRRTPRREATLELLGRVLRDMDLLGCLEDIEEALCGPAALPPAPSLLR”, which “percentage of EdU-negative” value (MCF7; [5]) is on record?
**A.** 24.9 ± 3.4%

**Q.** What about the “percentage of EdU-negative” value (MCF7; [6]) of the same sequence?
**A.** 25.5 ± 0.84%

**Q.** What about the “percentage of EdU-negative” value (hTERT-HMEC; [5]) of the same sequence?
**A.** 4.76 ± 0.43%

**Q.** And the “percentage of EdU-negative” value (hTERT-HMEC; [6])?
**A.** 5.34 ± 0.28%

**Q.** With “MARILLLFLPGLVAVCAVHGIFMDRLASKKLCADDECVYTISLASAQEDYNAPDCRFINVKKGQQIYVYSKLVKENGAGEFWAGSVYGDGQDEMGVVGYFPRNLVKEQRVYQEATKEVPTTDIDFFCE [Q9NRC9]” as the sequence, how does the “percentage of EdU-negative” value (MCF7; [7]) read?
**A.** 24.18 ± 0.24%

**Q.** What about the “percentage of EdU-negative” value (MCF7; [8]) of the same sequence?
**A.** 27 ± 3.7%

**Q.** And the “percentage of EdU-negative” value (hTERT-HMEC; [7])?
**A.** 5.05 ± 0.39%

**Q.** What about the “percentage of EdU-negative” value (hTERT-HMEC; [8]) of the same sequence?
**A.** 5.74 ± 0.68%

**Q.** “MLPPMALPSVSWMLLSCLILLCQVQGEETQKELPSPRISCPKGSKAYGSPCYALFLSPKSWMDADLACQKRPSGKLVSVLSGAEGSFVSSLVRSISNSYSYIWIGLHDPTQGSEPDGDGWEWSSTDVMNYFAWEKNPSTILNPGHCGSLSRSTGFLKWKDYNCDAKLPYVCKFKD [Q6UW15]” was tested. Which “percentage of EdU-negative” value (MCF7; [9]) did it give?
**A.** 25.43 ± 0.028%

**Q.** And the “percentage of EdU-negative” value (MCF7; protein concentration 0.225 µM)?
**A.** 26.8 ± 1.6%

**Q.** And the “percentage of EdU-negative” value (hTERT-HMEC; [9])?
**A.** 4.59 ± 0.17%

**Q.** What about the “percentage of EdU-negative” value (hTERT-HMEC; protein concentration 0.225 µM) of the same sequence?
**A.** 5.21 ± 0.13%
